Residue numbers refer to the chain shown, from its start. Blank lines part the entries; values can stand above or below the binder they belong to.
Tests used:
rmEph B3 = target: T1, rmEph B3 (mouse, UniProt P54754); assay: ELISA
T1 sequence (receptor, looked up): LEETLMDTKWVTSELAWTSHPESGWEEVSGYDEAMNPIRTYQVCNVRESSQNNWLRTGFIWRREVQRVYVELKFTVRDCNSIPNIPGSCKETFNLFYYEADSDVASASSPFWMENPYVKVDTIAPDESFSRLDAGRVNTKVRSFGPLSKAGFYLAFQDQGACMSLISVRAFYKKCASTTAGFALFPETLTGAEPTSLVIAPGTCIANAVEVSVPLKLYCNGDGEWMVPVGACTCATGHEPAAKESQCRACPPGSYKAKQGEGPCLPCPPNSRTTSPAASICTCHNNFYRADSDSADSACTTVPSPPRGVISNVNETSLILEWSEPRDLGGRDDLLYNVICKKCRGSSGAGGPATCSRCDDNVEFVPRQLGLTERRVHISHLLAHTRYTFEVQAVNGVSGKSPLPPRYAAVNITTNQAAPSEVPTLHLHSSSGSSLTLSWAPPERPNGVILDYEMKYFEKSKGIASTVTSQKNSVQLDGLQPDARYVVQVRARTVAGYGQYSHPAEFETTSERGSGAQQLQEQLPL

rrEphB1 = target: T2, rrEphB1 (rat, UniProt P09759); assay: ELISA
T2 sequence (receptor, looked up): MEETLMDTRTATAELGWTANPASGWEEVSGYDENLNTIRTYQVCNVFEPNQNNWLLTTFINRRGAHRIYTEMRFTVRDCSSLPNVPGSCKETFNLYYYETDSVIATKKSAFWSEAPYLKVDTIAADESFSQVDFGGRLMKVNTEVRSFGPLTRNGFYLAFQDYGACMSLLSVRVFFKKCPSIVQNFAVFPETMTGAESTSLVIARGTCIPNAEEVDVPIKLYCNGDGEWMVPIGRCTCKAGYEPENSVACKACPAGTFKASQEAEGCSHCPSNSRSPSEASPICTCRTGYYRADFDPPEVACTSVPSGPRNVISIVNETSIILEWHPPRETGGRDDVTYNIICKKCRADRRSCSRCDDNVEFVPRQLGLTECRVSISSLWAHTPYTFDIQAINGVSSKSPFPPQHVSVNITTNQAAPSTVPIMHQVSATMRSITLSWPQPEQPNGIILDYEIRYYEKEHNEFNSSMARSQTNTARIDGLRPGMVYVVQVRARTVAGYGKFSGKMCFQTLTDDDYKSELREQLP

rmEph B2 = target: T3, rmEph B2 (mouse, UniProt P54763); assay: ELISA
T3 sequence (receptor, looked up): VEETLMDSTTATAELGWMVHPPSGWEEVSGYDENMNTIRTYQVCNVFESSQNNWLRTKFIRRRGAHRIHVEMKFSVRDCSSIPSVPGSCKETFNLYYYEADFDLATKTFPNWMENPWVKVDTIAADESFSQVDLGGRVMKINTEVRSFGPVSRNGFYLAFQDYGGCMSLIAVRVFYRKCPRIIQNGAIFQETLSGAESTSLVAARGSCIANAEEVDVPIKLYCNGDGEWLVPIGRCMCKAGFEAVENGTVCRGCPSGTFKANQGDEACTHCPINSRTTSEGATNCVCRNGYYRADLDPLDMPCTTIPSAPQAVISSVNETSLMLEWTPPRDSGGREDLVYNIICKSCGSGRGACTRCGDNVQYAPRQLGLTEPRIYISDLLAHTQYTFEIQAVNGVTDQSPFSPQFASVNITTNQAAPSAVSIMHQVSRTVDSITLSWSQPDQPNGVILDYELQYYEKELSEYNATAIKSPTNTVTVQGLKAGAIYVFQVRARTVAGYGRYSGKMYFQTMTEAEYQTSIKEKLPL

hEph A1 = target: T4, hEph A1; assay: ELISA
T4 construct: also called human EphA1; not shown: Fc portion of the probable EphA1-Fc fusion (human IgG1 Fc)
T4 chain: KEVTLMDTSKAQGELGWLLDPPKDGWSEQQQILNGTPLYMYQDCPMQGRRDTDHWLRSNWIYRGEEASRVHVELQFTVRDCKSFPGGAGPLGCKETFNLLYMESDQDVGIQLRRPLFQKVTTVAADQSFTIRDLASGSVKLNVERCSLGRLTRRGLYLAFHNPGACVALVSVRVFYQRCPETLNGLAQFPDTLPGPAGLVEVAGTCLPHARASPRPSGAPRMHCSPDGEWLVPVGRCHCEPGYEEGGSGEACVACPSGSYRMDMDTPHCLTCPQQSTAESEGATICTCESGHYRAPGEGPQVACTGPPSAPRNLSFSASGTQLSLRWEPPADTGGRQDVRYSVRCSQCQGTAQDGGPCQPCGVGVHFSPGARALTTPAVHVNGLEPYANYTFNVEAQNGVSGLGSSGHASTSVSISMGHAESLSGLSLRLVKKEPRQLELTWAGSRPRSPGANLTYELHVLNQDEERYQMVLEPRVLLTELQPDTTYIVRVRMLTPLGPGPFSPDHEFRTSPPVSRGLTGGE

mEph A6 = target: T5, mEph A6 (mouse, UniProt Q62413); assay: ELISA
T5 sequence (receptor, looked up): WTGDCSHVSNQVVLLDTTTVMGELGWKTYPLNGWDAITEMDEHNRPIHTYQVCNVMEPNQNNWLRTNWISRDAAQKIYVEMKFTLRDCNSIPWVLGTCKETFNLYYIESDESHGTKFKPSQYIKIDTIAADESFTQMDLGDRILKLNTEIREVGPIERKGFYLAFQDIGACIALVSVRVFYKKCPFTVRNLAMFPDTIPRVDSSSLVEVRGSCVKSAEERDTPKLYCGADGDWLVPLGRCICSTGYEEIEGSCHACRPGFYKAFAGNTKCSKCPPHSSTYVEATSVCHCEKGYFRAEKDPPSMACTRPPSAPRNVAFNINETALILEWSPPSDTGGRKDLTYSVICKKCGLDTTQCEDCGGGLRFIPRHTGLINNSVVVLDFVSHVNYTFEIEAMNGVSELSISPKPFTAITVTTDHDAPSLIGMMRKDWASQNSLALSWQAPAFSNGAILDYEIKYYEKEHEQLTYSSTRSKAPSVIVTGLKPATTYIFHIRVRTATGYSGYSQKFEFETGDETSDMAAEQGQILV

[1] = target: T6, human EphA4 (construct not given) (human, UniProt P54764 20-547, limits assumed); assay: ELISA
T6 construct: also called EphA4 receptor

rEph A5 = rEph A5 (rat, UniProt P54757); assay: ELISA
mEph A4 = mEph A4 (mouse, UniProt Q03137); assay: ELISA
r murine EphA8 [2] = target: T7, r murine EphA8 (mouse, UniProt O09127); assay: Activity ELISA, receptor coated on the plate, periplasmic Fab, anti-human kappa-HRP, OD 450 nm
T7 construct: recombinant soluble protein coated on the plate; also called mEphA8; rEphA8
T7 sequence (receptor construct, looked up): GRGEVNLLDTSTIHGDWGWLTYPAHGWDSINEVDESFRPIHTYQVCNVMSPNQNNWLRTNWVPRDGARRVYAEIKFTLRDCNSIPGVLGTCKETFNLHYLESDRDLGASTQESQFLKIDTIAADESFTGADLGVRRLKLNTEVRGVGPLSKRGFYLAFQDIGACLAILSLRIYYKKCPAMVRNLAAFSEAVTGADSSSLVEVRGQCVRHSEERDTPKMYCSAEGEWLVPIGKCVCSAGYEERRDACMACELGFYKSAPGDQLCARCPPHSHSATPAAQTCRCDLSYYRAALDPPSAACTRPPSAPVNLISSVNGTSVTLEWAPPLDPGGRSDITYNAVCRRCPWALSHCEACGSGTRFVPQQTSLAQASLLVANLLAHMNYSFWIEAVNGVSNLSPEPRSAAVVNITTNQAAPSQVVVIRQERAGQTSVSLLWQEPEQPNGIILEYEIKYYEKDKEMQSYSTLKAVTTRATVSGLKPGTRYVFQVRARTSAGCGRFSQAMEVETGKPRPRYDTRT

r murine EphA8 [3] = target: T8, r murine EphA8 (mouse, UniProt O09127); assay: activity ELISA, Fab on coated antigen
T8 construct: recombinant (rEphA8, R&D Systems); also called rEphA8
T8 sequence (receptor, looked up): T7 sequence (receptor construct, looked up)
Description: (§1) More precisely, Nunc Maxisorp plates were coated with the following rEphA proteins: rhuEphAl-Fc, rmuEphA2-Fc, rmuEphA3-Fc, rmuEphA4-Fc, rratEphA5-Fc, rmuEphA6-Fc, rmuEphA7-Fc, rEphA8; all at 0.5 μg/well (all R&D Systems) rhuEphA2-Fc; 0.5 μg/well, and rhuEphA4-His; 0.1 μg/well (both produced at MedImmune, Inc.). Plates were blocked with 3% BSA+0.1% Tween20 for 2 h. […] Incubation with a goat anti-human kappa horseradish peroxydase (HRP) conjugate then followed. HRP activity was detected with TMB substrate and the reaction quenched with 0.2 M H₂SO₄. Plates were read at 450 nm. Data was analyzed by normalizing Fab concentrations to the corresponding activity data (see FIGS. 10B-10H).

r murine EphA7 = target: T9, r murine EphA7 (mouse, UniProt Q61772); assay: activity ELISA, Fab on coated antigen
T9 construct: recombinant Fc fusion (R&D Systems); also called rmuEphA7-Fc; mEphA7
T9 sequence (receptor-Fc fusion, looked up): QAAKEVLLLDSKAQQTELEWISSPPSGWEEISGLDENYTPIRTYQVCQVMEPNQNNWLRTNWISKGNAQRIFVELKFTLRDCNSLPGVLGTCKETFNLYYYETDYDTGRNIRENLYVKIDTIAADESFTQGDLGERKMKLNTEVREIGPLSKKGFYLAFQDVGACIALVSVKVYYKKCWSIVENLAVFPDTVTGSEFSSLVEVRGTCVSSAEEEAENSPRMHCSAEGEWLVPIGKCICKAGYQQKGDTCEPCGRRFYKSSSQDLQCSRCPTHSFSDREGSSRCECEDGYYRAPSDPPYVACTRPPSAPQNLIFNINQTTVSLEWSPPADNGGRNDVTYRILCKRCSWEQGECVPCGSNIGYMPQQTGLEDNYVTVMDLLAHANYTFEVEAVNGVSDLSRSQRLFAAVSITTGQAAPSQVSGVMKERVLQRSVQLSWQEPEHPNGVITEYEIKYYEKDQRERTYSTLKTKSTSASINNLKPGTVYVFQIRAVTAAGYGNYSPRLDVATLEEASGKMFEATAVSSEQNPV
Description: as §1

r murine EphA4 = target: T10, r murine EphA4 (mouse, UniProt Q03137); assay: activity ELISA, Fab on coated antigen
T10 construct: recombinant Fc fusion (R&D Systems); also called rmuEphA4-Fc; mEphA4
Description: as §1

T6 sequence (P54764 20-547 limits assumed): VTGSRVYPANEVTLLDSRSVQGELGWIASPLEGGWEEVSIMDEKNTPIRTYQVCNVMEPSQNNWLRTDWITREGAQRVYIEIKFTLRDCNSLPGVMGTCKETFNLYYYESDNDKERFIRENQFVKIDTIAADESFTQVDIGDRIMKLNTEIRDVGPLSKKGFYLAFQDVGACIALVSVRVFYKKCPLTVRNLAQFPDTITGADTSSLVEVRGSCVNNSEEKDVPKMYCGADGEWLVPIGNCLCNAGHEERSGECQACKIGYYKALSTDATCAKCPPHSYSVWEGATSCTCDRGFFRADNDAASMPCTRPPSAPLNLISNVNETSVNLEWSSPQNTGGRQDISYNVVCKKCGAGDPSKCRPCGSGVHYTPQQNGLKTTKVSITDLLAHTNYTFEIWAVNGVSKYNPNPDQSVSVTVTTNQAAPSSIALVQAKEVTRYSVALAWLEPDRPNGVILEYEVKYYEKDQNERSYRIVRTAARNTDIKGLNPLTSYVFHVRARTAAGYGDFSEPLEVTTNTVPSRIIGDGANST
T10 sequence (Q03137 20-547 limits assumed): as the sequence (P54764 20-547 limits assumed) above, with P59A, N121S, V124G, R250Q, S251N, T270S, K378R, N406S counted along it
mEph A4, sequence (Q03137 20-547 limits assumed): as the sequence (P54764 20-547 limits assumed) above, with P59A, N121S, V124G, R250Q, S251N, T270S, K378R, N406S counted along it
rEph A5, sequence (P54757 27-575 limits assumed): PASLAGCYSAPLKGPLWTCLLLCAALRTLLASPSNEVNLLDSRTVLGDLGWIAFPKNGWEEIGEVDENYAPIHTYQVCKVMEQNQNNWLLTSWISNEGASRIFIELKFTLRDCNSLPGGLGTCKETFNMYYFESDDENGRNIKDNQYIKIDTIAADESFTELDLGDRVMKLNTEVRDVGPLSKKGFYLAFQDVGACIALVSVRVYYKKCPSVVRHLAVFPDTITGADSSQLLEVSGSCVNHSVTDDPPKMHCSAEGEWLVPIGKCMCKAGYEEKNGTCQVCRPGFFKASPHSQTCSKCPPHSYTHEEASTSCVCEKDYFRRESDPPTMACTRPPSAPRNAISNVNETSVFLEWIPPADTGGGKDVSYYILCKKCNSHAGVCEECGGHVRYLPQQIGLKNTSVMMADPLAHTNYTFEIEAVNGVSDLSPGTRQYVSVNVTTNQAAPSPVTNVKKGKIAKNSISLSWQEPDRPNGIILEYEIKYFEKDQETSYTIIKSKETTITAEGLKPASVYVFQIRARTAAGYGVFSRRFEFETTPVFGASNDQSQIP

binding result (rmEph B3): binds | binding result (rrEphB1): binds | ELISA O.D. value (rmEph B2): 0.581 | ELISA O.D. value (hEph A1): 0.784 | ELISA O.D. value (mEph A6): 1.43 | ELISA O.D. value [1]: 0.887 | ELISA O.D. value (rEph A5): 0.717 | ELISA O.D. value (mEph A4): 0.358
B1: GEA44 11H1 (antibody, V domains shown)
VH: QVQLLQSGAEVKKPGASVKVPCKASGYTFTSYAMSWVRQAPGQGLEWMGWINTNTGNPTYAQGFTGRFVFSLDTSVSTAYLQISSLKAEDTAVYYCARVRLTVYGDGMDVWGQGTLVTVSS
VL: EIVLTQSPATLSVSPGERATLSCRASQSVSSNLAWYQQKPGQAPRLLIYGASTRATGIPDRFSASGSGTDFTLTISRVEPEDFAVYYCQQYGSSWTFGQGTKVEIK
notes: same variable regions as m16

binding result (r murine EphA8 [2]): binds | binding result (r murine EphA8 [3]): binds | binding result (r murine EphA7): binds | binding result (r murine EphA4): binds
B2: 3A12 Fab (affinity optimized combinatorial variant of Fab20) (Fab, V domains shown)
VH: B1 VH with Y32R, L101F
VL: B1 VL with R54W, S93P

— US20060121042A1 (AstraZeneca / MedImmune, published 2006)
